According to US20180230200A1 (CITY OF HOPE, published 2018):

Key:
[1] = target: T1, gH/gL/UL128/UL130/UL131A pentamer complex expressed from MVA-PC in BHK-21 cells (human cytomegalovirus, UniProt P12824 24-743; P16832 31-278; P16837 28-171; P16772 1-214; F5HET4 19-129); test: FC, biotinylated NAb titrated on MVA-PC-infected BHK-21 (cell surface PC)
T1 construct: whole, on cells

[2] = target: T1, gH/gL/UL128/UL130/UL131A pentamer …; test: FC competition, MVA-PC BHK-21; unlabelled row Ab; competitor: biotinylated 12E2
[3] = target: T2, UL128/UL130 co-expressed from MVA in BHK-21 cells (human cytomegalovirus, UniProt P16837 28-171; P16772 1-214); test: intracellular FC, MVA-infected BHK-21
T2 construct: whole, on cells

[4] = target: T3, UL130/UL131A co-expressed from MVA in BHK-21 cells (human cytomegalovirus, UniProt P16772 1-214; F5HET4 19-129); test: intracellular FC, MVA-infected BHK-21
T3 construct: whole, on cells

[5] = target: T4, UL128 expressed from MVA in BHK-21 cells (human cytomegalovirus, UniProt P16837 28-171); test: intracellular FC, MVA-infected BHK-21
T4 construct: whole, on cells
T4 sequence: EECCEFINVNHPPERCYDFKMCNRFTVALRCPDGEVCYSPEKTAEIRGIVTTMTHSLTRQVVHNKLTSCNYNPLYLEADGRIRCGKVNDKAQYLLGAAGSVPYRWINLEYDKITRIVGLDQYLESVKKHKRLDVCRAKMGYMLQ

[6] = target: T5, UL130 expressed from MVA in BHK-21 cells (human cytomegalovirus, UniProt P16772 1-214); test: intracellular FC, MVA-infected BHK-21
T5 construct: whole, on cells

B1: 18F10 (antibody, V domains shown)
VH: QVTLKESGPGILQPSQTLSLTCSFSGFSLSTYGIGIGWIRQPSGKGLEWLAHIWWNDNKNYNTALKSRLTISKDPSNNQVFLKIASVDTADTATYFCARTGYFDVWGAGTTVTVSS
VL: DVVLTQTPLSLPVSLGDQVSISCSSSQSLVHSNGNTYIHWYLQKPGQSPKLLIYTVSNRFSGVPDRFSGSGSGTDFTLKISRVEAEDLGLYFCSQSTHVPYTFGGGTKLEIK
notes: also called NAb 18F10
With B1 the EC50 [1] was 6.5 nM, the “Binding Inhibition (%)” value [2] was 0% and the binding result [3] was “no binding”. B1: no binding [4]; no binding [5]; no binding [6].
